Measurements reported in article PMC9204835 (Journal of the American Chemical Society, 2022).

Molecular target: the molecule itself
Assay: crystal structure

B1: SpeY-E269A/E270A double mutant (enzyme, Streptomyces spectabilis ATCC 27741)
chain: MSVRLADGKVRNPEGIEVNASLQCNMRCQSCAHLSPLYRRENADPAEIHDTLSVLARSYHASYAKIMGGEPLLHPDVVGLIEAVRATGISDTVLVATNGTLLHRATERFWQAVDSLEISVYPSRMIAPEEIERYRVLAREHGVSLLVNYYGHFRAVYSESGTDAPDLVRDVFDTCKLAHFWNSHTVYDGWLYRCPQSVFMPRQLRDGGWDPRVDGLRIEDDPAFLERLHRFLTADDPLRACRNCLGSVGKLHPHQELPRAGWQVTEQLAALVDYPFLKVCKDDITADDGCVERSLSAPVGGA
- binding result: binds
